The source of these data is publication PMC6987408, “Structural Insights Into the Transcriptional Regulation of HigBA Toxin–Antitoxin System by Antitoxin HigA in Pseudomonas aeruginosa” (Frontiers in Microbiology, 2019).

Broadly, the stoichiometry N is a count of units in the complex or per binding partner.

In data set [1] the target is PaHigA (Pseudomonas aeruginosa PAO1) (UniProt Q9HVC1). As to the kind of experiment: ITC. The note with it: ITC: 20 mM Tris pH 8.0, 100 mM NaCl, 5% glycerol, 20 C, 400 uM DNA into 100 uM PaHigA; EMSA: DNA annealed in 10 mM NaCl, 20 mM Tris pH 8.0, 30 min at room ….
In the next data set the target is PaHigA (Pseudomonas aeruginosa PAO1, UniProt Q9HVC1 1-101). As to the kind of experiment: crystal structure; 2.50 A; water-mediated contacts; ITC: 20 mM Tris pH 8.0, 100 mM NaCl, 5% glycerol, 20 C, 400 uM DNA into 100 uM PaHigA; EMSA: DNA annealed in 10 mM NaCl, 20 mM Tris pH 8.0, 30 min at room temperature, 5% native gel at 20 C. The note with it: protein: recombinant; tags: C-terminal His6; chain copies: 4. (In general: Mobility shift assays separate free from complexed probe on a gel.)

Data set [2] concerns the molecule itself. As to the kind of experiment: SAXS; apo PaHigA in solution at 1, 3 and 5 mg/ml, 22°C; oligomeric state from the fit to the dimer's theoretical curve and from the calculated molecular mass.

In the case of PhigBA 28-bp duplex, the Ka in data set [1] came to 7.5e+13 M^-2.

B1: PhigBA 18-bp duplex (dsDNA)
DNA 1: ACGCTTAACGTTAAGGGT
DNA 2: ACCCTTAACGTTAAGCGT
In the case of B1, the binding result in the data set with PaHigA is listed as “binds”.

B2: PaHigA (Pseudomonas aeruginosa antitoxin HigA) (natural protein, Pseudomonas aeruginosa PAO1, UniProt Q9HVC1 1-101, looked up)
chain: MATNGMRPIHPGEILRDEFLMEFDISPAALARALKVSAPTVNDIVREQRGISADMAIRLGRYFDTSAQFWMNLQSEYSLATAYAANGKQIEHEIEPLLAHG
notes: Antitoxin HigA of P. aeruginosa PAO1, gene higA (PA4674), full length amplified from the PAO1 genome; Cloned NcoI/BamHI into pET28b with a C-terminal His tag; the construct comes from Guo et al., 2019; also called PaHigA-His; apo PaHigA; source: E. coli BL21(DE3) pLysS, purified (nickel-nitrilotriacetic acid resin, gel filtration on Superdex 200); not shown: His6, C-terminal, kept
As for B2, in data set [2], the “stoichiometry N” value was 2.
